Common to all, as to details: modification not given
Assay [1] has as its target HLA-DRB1*04:01 MHCII molecule (human). The assay can be described thus: competition ELISA; 50 nM huCLIP-bio.
For assay [2], the target named is HLA-DRB1*08:01 MHCII molecule (human). The assay can be described thus: competition ELISA; 50 nM huCLIP-bio.
For assay [3], the target named is HLA-DRB1*09:01 MHCII molecule (human). The assay can be described thus: competition ELISA; 50 nM huCLIP-bio.
In assay [4] the target is HLA-DRB1*11:01 MHCII molecule (human). The assay can be described thus: competition ELISA; 50 nM huCLIP-bio.
The target in assay [5] is HLA-DRB1*15:01 MHCII molecule (human). Briefly: competition ELISA; 50 nM huCLIP-bio.
Assay [6] addresses HLA-DRB1*04:01 MHCII molecule (human). Briefly: competition ELISA; 25 nM huCLIP-bio.
Assay [7] addresses HLA-DRB1*08:01 MHCII molecule (human). The assay can be described thus: competition ELISA; 25 nM huCLIP-bio.
Assay [8] has as its target HLA-DRB1*09:01 MHCII molecule (human). The assay can be described thus: competition ELISA; 25 nM huCLIP-bio.
The target of assay [9] is HLA-DRB1*11:01 MHCII molecule (human). Briefly: competition ELISA; 25 nM huCLIP-bio.
The target of assay [10] is HLA-DRB1*15:01 MHCII molecule (human). Briefly: competition ELISA; 25 nM huCLIP-bio.

As for PVSQMRMATPLLMRP [mCLIP], the half-maximal inhibitory concentration (IC50) in [1] is 36.5 nM; in assay [2], 69.4 nM; in assay [3], 60.7 nM; in assay [4] it was 36.8 nM; in [5], 46.1 nM; in [6], 31.2 nM. Also, the IC50 in assay [7] was determined as 36.6 nM; in assay [8] it was 25 nM; in assay [9] it was 22.6 nM; in assay [10], 14.6 nM.

(Values after patent publication US20240255522A1.)
